In the NTF2 design screens of Basanta et al. (2020):

assay: protease stability score; higher = more stable; yeast display proteolysis, trypsin and chymotrypsin;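 also: log10 excess protease needed over predicted unfolded state with 0 meaning unfolded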

| Sequence | protease stability score |
| --- | --- |
| DDQEERDWNERMKQVLRTGDEHRLEQLMDENVRMRVGDSVVTGREKVRQVFHELMKQADKIEVKSVSAQGNEVLIRFVLNHNGKNDDVVIEVRVHNGRIKEIVIRSK | -0.001 |
| DDENVEIAEKIVKAEQSGDEDHLRELADPNARFHVGDKHVSGMEKFLKDFQHEFEELRFSIKVTSVTQSNGKVHMTATATRHRNGRPDSFTANRRFLFHNGKAKEVSQDNRK | -0.352 |
| DEELEHILKDILKAQKHNDEKRLEELFDPNVHFEVGDKRYNGMSRFAHELAQTQKEIKWRVQWQTWDVQGNKATMQAEAVFEVNGRPFRYTYQARVQVKNGKVKRHEIHVDPQQLRDQNS | -0.087 |
| DDQKARRLVERFIRALQHGDEDLARQLFDKNAKINIGDKTLTGREDVAKYVHHVHRHVDDVSVKSIQVDGDKAEVRVQFDINGKQHQMTFSAKYRNGRVQSATYKSQ | 0.524 |
| EEENSKLMEEIVKAISNGNPDRVRENMDPNARARYGDKRIHGMENILTQIERRWRQIRIQVDDVKLSVENGTINVDIQQRNDNNGQPDNFRLEASASVENGKVKEMNVVKRP | 0.014 |
| DEEQLKTFQQAMRDEEHGNEQRVRDLFDPNARVVYGDKVVHGREEMVKKLKRRKDEMRVELRVREYKVEEDHMSATLEVINDHNGKPDTDKQTVEARMNGDQFEQVNIQKDS | 0.17 |
| DDRRLAQEMANQFRKIRETGNPDDIVQLADPNAKYRIGERDVHGKEEIKKDFQEEKDRVDRIEVEIDSIEVKNGEVRVTFILRRTHNGRRESRTLVMNARVDNGRLTMESATEK | -0.205 |
| DEEEQRKTAEDIAQVLRTNNPDTMNKLADKNAKASVGDKTYHGRKELSKWIEEQRRRVDHVDIKRFSVDGNEIIIIVILNHNGQNTRVVMVARVKNGRIQSLWRKSK | -0.176 |
| DEEHVDQLLRKIFEILRNGDEKKLQDNFDPNVKATYGDRDITGMHSIAKTLAELFQRADHVNLRSMEVNGDKMRMQVSVQVDGRRATLEVNMRQHNGKVKELNLDPRRIKQFES | -0.169 |
| DNSELAQQRWRDLRKAISENDPKTARDLFDPNVRIEVGEKTLHGRKAASDFVKEIKKDYDHAYLQVTDVDVQGEHVHAHVVLHAEHNGKTTSVEMEMEAVFQGDKLRVRMMRKS | 0.641 |
| DREQQHVAREFLEAHNEGDEDRMVQLADPNARVHVGDKEVHGREELKKWVRDVEKKMNVQIDVRSIHAHNGKIRITARISFKINGEPRSDRIRFDFRAHNGTLKDFHLKVSEEQRKKKQQ | 0.075 |
| DHTEVKKQNEQVRKALTQGDPKTMKKMFDPNVKLQVGEKSYRGHKDLQKWAEEMHKRVDHARVDSVHARGNHVTVDVVFNINGREKRLTLRVSYHNGRINEVHMTDG | 0.745 |
| DKEHLKRMVETIIKILETGDPDKMKNLADENVRVEVGDKDVHGKDTLRKHIEEWRRQIDHLEVKSVRVKGNKASIHFVVRVNGTDKTVVVVFDIHNGKIKMVHYTDS | 0.637 |
| DEEDKADQFLRDLRQALQHNDENRMKELADKDARLNVGDKSVQGREQVVEHLVEKAKQVDDIKINIHTIKVHDGRFKFRATFVFNHNGKEESDEIVLVAHESNGKLKLLEVKEG | 1.14 |
| DEDLMRKFVERVKTGDPKDLVDQLDENAHQVVGETRVHGRSQFEKLAKKLEEQVDHIKVRSVKQENGRVDMDVVVNVNGQNNRYVLRVDVHNGKIKHMEVEFTDEEDEKAYRKALG | 0.095 |
| DDRDKVKSLWKQMLTILRTGDHKRWNKLVDKDVKYNIGDKSIHGKEEAEKLVKKIKDKVDTVSQTIVDVQNHNGRIHLRLRMVNNFNGNHNTYEVNAQFEKKNGRVKMQNQTDN | 0.149 |
| DEEDLQRVAEEVARALDTGNPDKFNSLLDKDAKVNYGDKEYTGREELKKLQERIKEHVDHVHVKRVKVEGEKIHLDIEFEVNGRRFRDTIEARVHNGELQKVHVDPNFVRELKQ | 0.842 |
| KEETVETLWKQMVEAVQKNNEEQLKKLGKDDVKVEYGGKKYEGTEQMATQLKKFMDLGAKFELKRYKVEGNHVEADIQVHVGGKTVHVTVRVEYDGGKLKKVQVHVSEEAEEAYKKG | 1.24 |
| DETARHRLEEMWTNIQRNNPSEVAKLADKDVRVRVGDKEIHGREQLNHHIKRFNDEIRMNVDHISIKVDGNEADIHIRAEFEVNGTPFEMTIDVKISVHNGKIKEIDRQVSEEEKRRLKK | 0.806 |
| DEEIVELIKKVLEAIEEGDETRLKKLFDPNAEFEIGDKKLHGMENAAKEWRKQRQQMEIRIKSVHFEVRGERVIVKFKVEYDHNGRPSTMTVHIVALAHNGKMTYFSQKVTQ | 0.826 |
| DEENAHEAVRIWETGDPQENADLVDPNVHARYGDKKIRGREDMEEFWRRMHHQIDHKDVRDIQVSGNHIEIDMEINVDGVRARYVARYHMDNGKIKSANAEFRDPDEKQDIRRALD | 0.275 |
| DESLVEILKKLAKAFNENDPDHLVKLFDEDARLDYGDTSVHGREQIKRLMEDWKRRMTVKIRVNHIDVKNGRAQMKADLTIRHNGKPDTNKVEVELHAHNGRNKEVVFERTK | 0.279 |
| DEEEHFRKWVHEFIKILETGDPDQAKKMMDPNVRETVGDKSLHGHDQMVREIEKRRESIDHVNFDIKDYRIQGNHFVLDLKVNEVHNGKEITRRLEVDASTQGDKLYVNEIRLS | -0.146 |
| DTQALKHARSVLEDNDWDKLQKLADKDARATVGDTTYHGREDIQTWLKRAEETVDHVNIKSISIDEDSISVRFVMNVNGKTVEMVITIQLHNGRIKFLRIQARSEEQEKTIHEVVD | -0.051 |
| DEDEARTWANRMRKIIKEGDPKKMRHQLDKDAKAQVGDDTVHGRDKVVQLLQHILEHVDHVEIQHVEAQGNEVDIQVKLTVNGRDDSLKFDIKYHNGRVKTIRVQEQ | -0.084 |
